{
  "source": "paper PMC3755343",
  "about": "“A family of fluoride-specific ion channels with dual-topology architecture” (eLife, 2013)",
  "molecules": {"B1": {"name": "Fluc-Bpe R29C labeled with Cy5-maleimide (natural protein)", "chain": "MLTYAPLNFIAIGIGATLGAWLRWVLGLCLNGAGWPWGTLTANLVGGYLIGVMVALIASHPEWPAWIRLAAVTGFLGGLTTFSTFSAETVDMLERGVYATAAAYAGASLAGSLAMTGLGLATVRLLLR", "modifications": "Cy5-maleimide on the unique cysteine R29C (labeling efficiency 72%)", "notes": "Fluc homologue Bpe from Bordatella pertussis (so in the source), NCBI NP_879990.1, naturally cysteine-free, with a single cysteine substitution; source: E. coli BL21-DE3, purified, labeled with Cy5-maleimide, reconstituted into liposomes at 0.15 µg/mg lipid"}, "B2": {"name": "Fluc-Bpe R29K (natural protein)", "chain": "B1 chain with C29K", "notes": "Fluc homologue Bpe from Bordatella pertussis (so in the source), NCBI NP_879990.1, lysine-less, with a single lysine in loop 1"}, "B3": {"name": "Fluc-Bpe R95K (natural protein)", "chain": "B1 chain with C29R, R95K", "notes": "Fluc homologue Bpe from Bordatella pertussis (so in the source), NCBI NP_879990.1, lysine-less, with a single lysine in loop 3"}, "B4": {"name": "Fluc-Bpe T3C labeled with Cy5-maleimide (natural protein)", "chain": "B1 chain with T3C, C29R", "modifications": "Cy5-maleimide on the unique cysteine T3C (labeling efficiency 62%)", "notes": "as for B1"}},
  "key": {"[1]": {"target": "Fluc-Ec2 (E. coli (virulence plasmid)) (UniProt Q6J5N4)", "assay": "SEC-MALS; SEC with static light scattering, refractive index and UV detectors; Superdex-75 in 400 mM NaF, 10 mM MES pH 6.5, 5 mM DM (detergent micelles)"}, "[2]": {"target": "the molecule itself", "assay": "single-molecule TIRF photobleaching; Cy5-labeled protein reconstituted at very low density (0.15 µg/mg lipid) in liposomes adhered to glass; counting of bleaching steps"}, "[3]": {"target": "the molecule itself", "assay": "cross-linking; ~0.1 mg/ml purified protein in 20 mM MOPS pH 7.5, 100 mM NaCl, 10 mM NaF, 5 mM DM with 0.125% glutaraldehyde for 5-120 min; 15% SDS-PAGE"}},
  "note": "Where a chain is given by its changes, count along the chain named. In names and notes the source's numbering stands.",
  "data": [
    {"molecule": "Fluc-Ec2 (from UniProt Q6J5N4 1-126) (natural protein)", "values": [
      {"measurement": "stoichiometry N", "setting": "[1]", "value": 2}
    ]},
    {"molecule": "B1", "values": [
      {"measurement": "stoichiometry N", "setting": "[2]", "value": 2}
    ]},
    {"molecule": "B2", "values": [
      {"measurement": "binding result", "setting": "[3]", "value": "binds"}
    ]},
    {"molecule": "B3", "values": [
      {"measurement": "binding result", "setting": "[3]", "value": "binds"}
    ]},
    {"molecule": "B4", "values": [
      {"measurement": "binding result", "setting": "[2]", "value": "binds"}
    ]}
  ]
}
